Experimental data reported in patent US11827690B2, “ApoC-II mimetic peptides” (THE UNITED STATES OF AMERICA, as represented by the …, priority 2017, dated 2023).
Blank lines part the entries; values can stand above or below the substance they belong to. Non-standard residues stand in square brackets, D forms with d. No end group written: not given here. *: point of attachment. Stearoyl = CCCCCCCCCCCCCCCCCC(=O)*; Nle = CCCC[C@H](N)C(=O)O

Key:
bovine LPL [1] = biological target: T1, bovine LPL (Bos taurus, UniProt P11151); assay: in vitro LPL assay using apoC-II deficient patient sera as substrate; format: biochemical; settings: for promoting TG hydrolysis in the presence of LPL / efficiency compared with native apoC-II protein: FIG. 6; for efficiency compared with native apoC-II protein: at lower concentrations; for TG hydrolysis: concentrations from 100 pM to 10 μM, FIG. 12; for TG clearance ability compared with Delta4: FIG. 10
T1 sequence (P11151 29-478): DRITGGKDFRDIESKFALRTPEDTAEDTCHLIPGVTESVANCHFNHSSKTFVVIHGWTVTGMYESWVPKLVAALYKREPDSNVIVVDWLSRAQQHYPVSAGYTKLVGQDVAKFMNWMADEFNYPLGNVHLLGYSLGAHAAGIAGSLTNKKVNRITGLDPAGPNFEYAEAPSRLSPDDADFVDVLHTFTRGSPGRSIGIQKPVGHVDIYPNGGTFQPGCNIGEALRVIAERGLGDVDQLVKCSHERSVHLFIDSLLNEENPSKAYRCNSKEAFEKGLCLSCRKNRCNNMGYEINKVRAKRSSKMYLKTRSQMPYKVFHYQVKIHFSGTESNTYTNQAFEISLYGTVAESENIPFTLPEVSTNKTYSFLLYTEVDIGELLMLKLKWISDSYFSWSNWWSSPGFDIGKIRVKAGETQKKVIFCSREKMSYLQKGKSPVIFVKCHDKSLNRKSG
Procedure: (§1) Preparation of LPL: frozen stock of 10 μL of 0.5 mg/mL bovine LPL was used and diluted 1:100 (10 μL+990 μL of PBS).
(§2) Preparation of 20% Intralipid: 2000 mg/dL TG Intralipid was used to prepare 3 mg/dL TG Intralipid by diluting 1.5 μL of the stock with 998.5 μL PBS, or by diluting the stock 1:10 first and then mixing 15 μL of the diluted stock with 985 μL PBS. When apoC-II deficient human serum was used as a substrate, a frozen 10 μL aliquot of 1711 mg/dL (TG) was diluted by adding 990 μL PBS (1:100 dilution).
(§3) Preparation of free fatty acid (NEFA) assay: NEFA reagents were purchased from Wako Diagnostics, Wako Life Sciences, Inc. Reagent A was prepared by mixing Coloring Reagent A with Solvent A (225 μL per well). Reagent B was prepared by mixing Coloring Reagent B with Solvent B (75 μL per well). 5 nmoL oleic acid standard was prepared by diluting 20 μL of 1 mM oleic acid stock (WAKO NEFA standard solution) with 180 μL of 0.2% BSA.
(§4) LPL activity assay: 10 μL of Intralipid, human plasma sample, or mouse plasma sample was added in each well using repeater pipette. 10 μL (or 15 μL in the wells with no LPL control) of PBS and 10 μL of 1% BSA was added in each well using repeater pipette. 10 μL of peptides were added to corresponding wells in vertical triplicates (lowest concentration is on a left, highest is on the right). The plate was spun down at 1000 RPM for 10 seconds to mix and to remove the solutions from the wall of each well. The plate was put on ice and 5 μL of LPL was added using repeater pipette. The plate was spun down again at 1000 RPM for 10 seconds. The plate was covered and put back on ice for an incubation of 30 min. The plate was then moved to 37° C. and incubated for 1 hour.
(§5) Free fatty acids (NEFA) assay: 45 μL of 5 nmoL standard and 0 nmoL control (0.2% BSA) were added to corresponding wells. 225 μL of reagent A was added in each well using the reagent tray and 12-channel pipette. The plate was incubated for 10 min before 75 μL of reagent B was added to each well using the reagent tray and 12-channel pipette. The plate was not covered due to the high volume. The absorbance at 550 nm and 660 nm was measured.

bovine LPL [2] = biological target: T1, bovine LPL; assay: in vitro LPL assay using Intralipid as substrate; format: biochemical; settings: concentrations of between about 1 nM to about 10 μM, FIG. 7
Procedure: as §1, §2, §3
LPL activity assay: 10 μL of Intralipid, human plasma sample, or mouse plasma sample was added in each well using repeater pipette. 10 μL (or 15 μL in the wells with no LPL control) of PBS and 10 μL of 1% BSA was added in each well using repeater pipette. […]
Free fatty acids (NEFA) assay: 45 μL of 5 nmoL standard and 0 nmoL control (0.2% BSA) were added to corresponding wells. […] The absorbance at 550 nm and 660 nm was measured.

bovine LPL [3] = biological target: T1, bovine LPL; assay: in vitro LPL assay using hypertriglyceridemia patient sera as substrate; format: biochemical; settings: sera of patients with high levels of apoC-III protein, FIG. 27
Procedure: as §1, §3, §4, §5

apoC-II knockout mice = assay: plasma lipids of apoC-II knockout mice after peptide injection; format: in vivo
Procedure: (§6) C57Bl/6 mice (wild-type), apoC-II knockout (apoC-II KO) mice, and apoC-III transgenic mice were used for in vivo study. The C57Bl/6 mice (wild-type) were purchased from Taconic Biosciences Inc. The apoC-II KO mice were created as described in Sakurai et al., J Pharmacol Exp Ther 356:341-353, 2016. The apoC-III transgenic mice were generated by overexpressing human apoC-III in C57Bl/6 mice. See Qu et al., J. Lipid Res. 48:1476-1487, 2007.
Mice were fasted overnight (approximately 12 hours) before the study and 6 hours during the study, the next day. The apoC-II mimetic peptides were synthetically produced and free of biological contamination (not available as FDA approved compounds/treatment). […] W.) administered either subcutaneous injection (S.Q. or S.C.), intraperitoneal injection (I.P.) or intravenous injection (I.V.) (in a sterile, pharmaceutical grade PBS solution at a volume ≤200 μL) as described in Sakurai et al., J Pharmacol Exp Ther 356:341-353, 2016.

C57BL/6 mice (wild-type) = assay: post-prandial serum TG in C57BL/6 mice after oral gavage with vegetable oil; format: in vivo; settings: intraperitoneally injected 30 min before gavage, FIG. 20
Procedure: as §6
Mice were fasted overnight (approximately 12 hours) before the study and 6 hours during the study, the next day. The apoC-II mimetic peptides were synthetically produced and free of biological contamination (not available as FDA approved compounds/treatment). Peptides were produced and used in sterile conditions and filtered by 0.2 nm filter before injections in a single dose 1-10 μmol/kg body weight (B. W.) administered either subcutaneous injection (S.Q. or S.C.), intraperitoneal injection (I.P.) or intravenous injection (I.V.) (in a sterile, pharmaceutical grade PBS solution at a volume ≤200 μL) as described in Sakurai et al., J Pharmacol Exp Ther 356:341-353, 2016.
(§7) In some experiments, each animal received 20% Intralipid (FDA approved, Fresenius Kabi, Uppsala, Sweden) in a single dose either by oral gavage (using special sterile single-use non-toxic animal feeding needles) in a dose 10-20 μL/gram body weight (B.W.) (Tuzcu et al. Drug Chem Toxicol 37: 261-267, 2014; Kusminski et al. Nature Medicine 18: 1539-1549, 2012), or by intraperitoneal injection in a single bolus of 0.1-1.0 mL (Mahadero et al. American J Surgery 164: 45-50, 1992), or by intragastric administration of a dietetic commercially-available liquid oil (food grade vegetable, corn, soy or olive oil) in a single dose 10-20 μL/gram body weight. These oils were a source of TG—when absorbed TG tends to be broken down within 3 h (peak in 30 min) (Kritchevsky Nutritional Biochemistry 6:172-178, 1995). Blood samples (20-30 μL) were obtained from the retro-orbital plexus at time points: −1 h, 0 h, 1 h, 3 h, 6 h and 24 h for measurements of lipids. Mice were returned to metabolic cages after the 6 h time point where the food was put back. Once the study was completed (after 24 hours from the fat administration), mice were euthanized and organs collected.

wild-type mice = assay: serum TG of wild-type mice after Intralipid injection with or without LPL inhibitor Triton WR1339; format: in vivo; settings: co-injection with Intralipid, 6 h time point
Procedure: as §7
The ability of apolipoprotein mimetic peptides to normalize hypertriglyceridemia in mice treated with an LPL inhibitor, Tyloxapol, in presence of high TG provided by 20% Intralipid, was assessed.
Mice were fasted overnight (approximately 12 hours) before the study and 6 hours during the study, the next day. The apo mimetic peptides were synthetically produced and free of biological contamination (not available as FDA approved compounds/treatment). Peptides were produced and used in sterile conditions and filtered by 0.2 nm filter before injections in a single dose 1-5 μmol/kg B.W. either S.C. or I.P. or I.V. (in a sterile, pharmaceutical grade PBS solution at a volume ≤200 μL). Next, 10% Tyloxapol (Triton WR-1339, T-0307, Sigma-Aldrich) was injected I.V. in a single dose of 5 μL/gram B.W., as described earlier (Zhang Y. L. et al., J Biol Chem. 279: 19362-19374, 2004; Abe C. et al., J. Nutr. 137: 345-350, 2007). […] Finally, each animal received 20% Intralipid (FDA approved, Fresenius Kabi, Uppsala, Sweden) in a single dose either by oral gavage (using special sterile single-use non-toxic animal feeding needles)—in a dose 10-20 μL/gram B.W. (Tuzcu K. et al., Drug Chem Toxicol., 37: 261-267, 2014, Kusminski C. et al., Nature Medicine. 18: 1539-1549, 2012), or by intraperitoneal injection—in a single bolus of 0.1-1.0 mL (Mahadero G. et al., American J Surgery. 164: 45-50, 1992). Blood samples (20-30 μL) were obtained from the retro-orbital plexus at time points: −1 h, 0 h, 1 h, 3 h, 6 h and 24 h for measurements of lipids. Mice were returned to metabolic cages after the 6 h time point where the food was put back. Once the study was completed (after 24 hours from the Intralipid administration), mice were euthanized and organs collected.

[4] = biological target: T2, LPL inhibited by apoC-III (Bos taurus, UniProt P11151); assay: LPL activation assay with Intralipid as substrate and recombinant apoC-III as an inhibitor; format: biochemical; settings: Intralipid substrate, FIG. 31
T2 sequence (P11151 29-478): T1 sequence (P11151 29-478)
Procedure: as §4, §5
(§8) LPL assay was performed using Intralipid, high TG human plasma (1:50 dilution), or apoC-III transgenic mouse plasma (1:50 dilution). When Intralipid was used as a substrate, 25 or 50 μM recombinant ApoC-III was added as an inhibitor. When the high TG human plasma was used as a substrate, 25 or 50 μM recombinant ApoC-III was added as an inhibitor with or without pre-incubation at 37° C. for 1 hour. An apoC-II mimetic peptide was added at various concentrations.

[5] = biological target: T2, LPL inhibited by apoC-III; assay: LPL activation assay with high TG human plasma as substrate and recombinant apoC-III as an inhibitor; format: biochemical; settings: 50 μM apoC-III added; from about 3.2 μM without; plasma 1:50 dilution
Procedure: as §4, §5, §8

[6] = biological target: T2, LPL inhibited by apoC-III; assay: LPL assay using human apoC-II deficient plasma as substrate with recombinant apoC-III; format: biochemical; settings: 25 μM apoC-III added; from about 1.5 μM without
Procedure: as §4, §5, §8

- LPL activity (bovine LPL [3]): increased the LPL activity
Substance: DYLKAVFEKLRDLYSKFTAAnLSTYTGIFTDQVLSVLKGEE (DYLKAVFEKLRDLYSKFTAA[Nle]STYTGIFTDQVLSVLKGEE) [Delta4]
- promoting TG hydrolysis in the presence of LPL (bovine LPL [1]): capable of promoting TG hydrolysis in the presence of LPL
- efficiency compared with native apoC-II protein (bovine LPL [1]): worked more efficiently than the native apoC-II protein
- TG hydrolysis (bovine LPL [1]): promoted TG hydrolysis in a dose-dependent manner
- efficiency compared with native apoC-II protein (bovine LPL [2]): worked more efficiently than the native apoC-II protein
- plasma TG (apoC-II knockout mice; intraperitoneal injection): marked reduction of plasma TG
- total cholesterol level (apoC-II knockout mice; intraperitoneal injection): decrease in total cholesterol level
- time of maximum decrease of plasma TG (apoC-II knockout mice; intraperitoneal injection, FIG. 18): about 3 hours
- plasma TG (apoC-II knockout mice; subcutaneous injection): rapid and marked reduction of plasma TG
- total cholesterol level (apoC-II knockout mice; subcutaneous injection): decrease in total cholesterol level
- serum TG increase after vegetable oil gavage (C57BL/6 mice (wild-type)): the TG increase was significantly reduced

Substance: DYLKEVFEKLRDLYSKFTAAnLSTYTGIFTDQVLSVLKGEE (DYLKEVFEKLRDLYSKFTAA[Nle]STYTGIFTDQVLSVLKGEE) [Delta5]
- promoting TG hydrolysis in the presence of LPL (bovine LPL [1]): capable of promoting TG hydrolysis in the presence of LPL
- efficiency compared with native apoC-II protein (bovine LPL [1]): worked more efficiently than the native apoC-II protein
- efficiency compared with native apoC-II protein (bovine LPL [2]): worked more efficiently than the native apoC-II protein

Substance: DYLKAVFEKLRDLYSKFTPAMSTYTGIFTDQVLSVLKGEE [Delta4b]
- TG clearance ability compared with Delta4 (bovine LPL [1]): enhanced the TG clearance ability of the exemplary apoC-II mimetic peptide Delta4
- TG hydrolysis (bovine LPL [1]): promoted TG hydrolysis in a dose-dependent manner
- serum TG increase after vegetable oil gavage (C57BL/6 mice (wild-type)): the TG increase was significantly reduced

Substance: DYLKAVFEKLRDLYSKKC18TPAMSTYTGIFTDQVLSVLKGEE (DYLKAVFEKLRDLYSKK(Stearoyl)TPAMSTYTGIFTDQVLSVLKGEE) [Delta4b-3]
- TG clearance ability compared with Delta4 (bovine LPL [1]): enhanced the TG clearance ability of the exemplary apoC-II mimetic peptide Delta4
- TG hydrolysis (bovine LPL [1]): promoted TG hydrolysis in a dose-dependent manner
- serum TG increase after vegetable oil gavage (C57BL/6 mice (wild-type)): the TG increase was significantly reduced

Substance: Tyloxapol [Triton, reference compound]
- increase of serum TG level (wild-type mice): more than 1000 fold

- free fatty acid (NEFA) production [5]: about 1.7 μM
- free fatty acid (NEFA) production [6]: about 0.8 μM
Substance: apoC-III recombinant protein: recombinant ApoC-III added as an inhibitor in the LPL assay
- effect on production of free fatty acid (NEFA) [4]: inhibited the production of free fatty acid (NEFA)
